Usually koff stands for the first-order rate constant of dissociation. As usually defined, the kon is a measure of how fast the partners come together.

For 1 molecule, Ka, koff and kon results are on record in patent US20020076693A1 (published 2002).

The experiment deals with T1, recombinant soluble CD4 (UniProt P01730 26-396).
T1 construct: domain: soluble form of recombinant CD4
The experiment can be described thus: BIAcore, soluble CD4; row shifted one column to the left.

B1: recombinant gp120 of HIV-1 SF2 (ligand)
chain: not shown
notes: domain: gp120; also called gp120 HIV-1 SF2; gp120-SF2
As for B1, the Ka was determined as 2.1e+08 M⁻¹, the koff turned out to be 0.0056 s⁻¹ and the association rate constant (kon) is 1.15e+06 M⁻¹ s⁻¹.
